The target of experiment [1] is T1, FLAG-tagged IL-12p40 (human, UniProt P29460 23-328).
T1 sequence: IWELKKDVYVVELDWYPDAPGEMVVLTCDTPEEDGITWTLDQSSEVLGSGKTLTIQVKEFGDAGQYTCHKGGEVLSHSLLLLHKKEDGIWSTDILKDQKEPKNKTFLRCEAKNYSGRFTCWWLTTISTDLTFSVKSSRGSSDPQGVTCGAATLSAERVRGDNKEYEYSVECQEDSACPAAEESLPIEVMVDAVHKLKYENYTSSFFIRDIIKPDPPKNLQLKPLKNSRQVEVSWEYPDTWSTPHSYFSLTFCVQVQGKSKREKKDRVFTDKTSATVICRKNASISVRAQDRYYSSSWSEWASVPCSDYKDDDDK
Description: ELISA, hybridoma supernatant on antigen captured by anti-FLAG M2. The procedure: (§1) Anti-FLAG M2 antibody (Sigma-Aldrich) was coated onto ELISA plates overnight. These plates were then used to capture individually: FLAG-tagged IL-23p19, FLAG-tagged IL-12p40 and FLAG-tagged IL-23. Hybridoma supernatant from the clones was added and hybridomas that were positive for binding to IL-23 but not IL-12p40 or IL-23p19 were expanded.
In general terms: An ELISA detects its analyte on a solid surface through an enzyme-linked reagent.

Experiment [2] has as its target T2, FLAG-tagged IL-23p19 (human, UniProt Q9NPF7 20-189).
T2 sequence: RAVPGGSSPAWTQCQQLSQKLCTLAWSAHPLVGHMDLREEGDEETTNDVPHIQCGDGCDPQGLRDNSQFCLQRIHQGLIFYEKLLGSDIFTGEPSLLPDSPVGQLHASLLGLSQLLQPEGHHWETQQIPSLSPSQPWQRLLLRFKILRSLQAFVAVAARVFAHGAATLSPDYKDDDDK
Described as above. As for the experimental part:
as §1

B1: E11E7 (antibody, V domains shown)
VH: QVQLKESGPGLVQPSQTLSLTCTVSGFSLISYNVHWVRQPRGKGLEWMGVIWTGGSTDYNSVLKSRLSISRDTSKSQVFLKMHSLQTEDIGTYYCARDKYGLFPGYFDYWGQGVMVTVSS
VL: DIVMTQSPFSLAVSEGEMVTINCKPSQSLLSSGNRKNYLAWYQQKPGQSPKLLIYYASTRQSGVPDRFIGSGSGTDFTLTISDVQAEDLADYYCLQHFNYPWTFGGGTKLELKR
notes: Rat monoclonal antibody from a hybridoma; also called rat antibody E11E7
B1: the binding result in experiment [1] and in experiment [2] was “no binding” throughout.
